Source: article PMC7611526

Assays:
Assay in all cases: EMSA
[1] = test system: OCT4-del-73 (Homo sapiens)
[2] = test system: OCT4-DBD (Homo sapiens)
[3] = test system: OCT4-WT (Homo sapiens)

Substance	Kd [1]	Kd [2]	Kd [3]
LIN28B-nucleosome	0.949 nM	–	–
LIN28B-DNA	0.85 nM	4.53 nM	1.44 nM
